Laboratory results taken from the supplement of paper PMC11246515.
± gives the standard deviation of the averaged measurements.

Test: total protein half-life in vivo (active degradation + dilution); higher = more stable protein
[1] = E. coli NCM3722 delta-smpB, growth: N-lim chemostat, doubling time 6 h
[2] = E. coli NCM3722 delta-clpP delta-lon delta-hslV, growth: N-lim chemostat, doubling time 6 h
[3] = E. coli NCM3722 delta-clpP, growth: N-lim chemostat, doubling time 6 h
[4] = E. coli NCM3722 delta-hslV, growth: N-lim chemostat, doubling time 6 h
[5] = E. coli NCM3722 delta-lon, growth: N-lim chemostat, doubling time 6 h
[6] = wild type E. coli NCM3722, growth: C-lim chemostat, doubling time 3 h
[7] = wild type E. coli NCM3722, growth: C-lim chemostat, doubling time 6 h
[8] = wild type E. coli NCM3722, growth: C-lim chemostat, doubling time 12 h
[9] = wild type E. coli NCM3722, growth: N-lim chemostat, doubling time 6 h
[10] = wild type E. coli NCM3722, growth: N-lim chemostat, doubling time 12 h
[11] = wild type E. coli NCM3722, growth: P-lim chemostat, doubling time 6 h
[12] = wild type E. coli NCM3722, growth: P-lim chemostat, doubling time 12 h

| Sequence | total protein half-life in vivo [1] | total protein half-life in vivo [2] | total protein half-life in vivo [3] | total protein half-life in vivo [4] | total protein half-life in vivo [5] | total protein half-life in vivo [6] | total protein half-life in vivo [7] | total protein half-life in vivo [8] | total protein half-life in vivo [9] | total protein half-life in vivo [10] | total protein half-life in vivo [11] | total protein half-life in vivo [12] |
| --- | --- | --- | --- | --- | --- | --- | --- | --- | --- | --- | --- | --- |
| MKNRTLGSVFIVAGTTIGAGMLAMPLAAAGVGFSVTLILLIGLWALMCYTALLLLEVYQHVPADTGLGTLAKRYLGRYGQWLTGFSMMFLMYALTAAYISGAGELLASSISDWTGISMSATAGVLLFTFVAGGVVCVGTSLVDLFNRFLFSAKIIFLVVMLVLLLPHIHKVNLLTLPLQQGLALSAIPVIFTSFGFHGSVPSIVSYMDGNIRKLRWVFIIGSAIPLVAYIFWQVATLGSIDSTTFMGLLANHAGLNGLLQALREMVASPHVELAVHLFADLALATSFLGVALGLFDYLADLFQRSNTVGGRLQTGAITFLPPLAFALFYPRGFVMALGYAGVALAVLALIIPSLLTWQSRKHNPQAGYRVKGGRPALVVVFLCGIAVIGVQFLIAAGLLPEVG [P0AAD4] | 6.48 h | – | – | – | – | – | – | – | – | – | – | – |
| MMEILRGSPALSAFRINKLLARFQAARLPVHNIYAEYVHFADLNAPLNDDEHAQLERLLKYGPALASHAPQGKLLLVTPRPGTISPWSSKATDIAHNCGLQQVNRLERGVAYYIEAGTLTNEQWQQVTAELHDRMMETVFFALDDAEQLFAHHQPTPVTSVDLLGQGRQALIDANLRLGLALAEDEIDYLQDAFTKLGRNPNDIELYMFAQANSEHCRHKIFNADWVIDGEQQPKSLFKMIKNTFETTPDHVLSAYKDNAAVMEGSEVGRYFADHETGRYDFHQEPAHILMKVETHNHPTAISPWPGAATGSGGEIRDEGATGRGAKPKAGLVGFSVSNLRIPGFEQPWEEDFGKPERIVTALDIMTEGPLGGAAFNNEFGRPALNGYFRTYEEKVNSHNGEELRGYHKPIMLAGGIGNIRADHVQKGEINVGAKLVVLGGPAMNIGLGGGAASSMASGQSDADLDFASVQRDNPEMERRCQEVIDRCWQLGDANPILFIHDVGAGGLSNAMPELVSDGGRGGKFELREILSDEPGMSPLEIWCNESQERYVLAVAADQLPLFDELCKRERAPYAVIGEATEELHLSLHDRHFDNQPIDLPLDVLLGKTPKMTRDVQTLKAKGDALAREGITIADAVKRVLHLPTVAEKTFLVTIGDRSVTGMVARDQMVGPWQVPVANCAVTTASLDSYYGEAMAIGERAPVALLDFAASARLAVGEALTNIAATQIGDIKRIKLSANWMAAAGHPGEDAGLYEAVKAVGEELCPALGLTIPVGKDSMSMKTRWQEGNEEREMTSPLSLVISAFARVEDVRHTITPQLSTEDNALLLIDLGKGNNALGATALAQVYRQLGDKPADVRDVAQLKGFYDAIQALVAQRKLLAYHDRSDGGLLVTLAEMAFAGHCGIDADIATLGDDRLAALFNEELGAVIQVRAADREAVESVLAQHGLADCVHYVGQAVSGDRFVITANGQTVFSESRTTLRVWWAETTWQMQRLRDNPECADQEHQAKSNDADPGLNVKLSFDINEDVAAPYIATGARPKVAVLREQGVNSHVEMAAAFHRAGFDAIDVHMSDLLTGRTGLEDFHALVACGGFSYGDVLGAGEGWAKSILFNDRVRDEFATFFHRPQTLALGVCNGCQMMSNLRELIPGSELWPRFVRNTSDRFEARFSLVEVTQSPSLLLQGMVGSQMPIAVSHGEGRVEVRDAAHLAALESKGLVALRYVDNFGKVTETYPANPNGSPNGITAVTTESGRVTIMMPHPERVFRTVSNSWHPENWGEDGPWMRIFRNARKQLG | 4.63 ± 0.36 h | 5.77 ± 0.51 h | 4.8 ± 0.37 h | 4.73 ± 0.32 h | 5.07 ± 0.55 h | 3.03 ± 0.051 h | 5.98 ± 0.39 h | 10.4 ± 0.62 h | 4.72 ± 0.081 h | 8.05 ± 0.21 h | 6.31 ± 0.075 h | 11.5 ± 0.43 h |
| MQENISVTDSYSTGNAAQAMLEKLLQIYDVKTLVAQLNGVGENHWSAAILKRALANDSAWHRLSEKEFAHLQTLLPKPPAHHPHYAFRFIDLFAGIGGIRRGFESIGGQCVFTSEWNKHAVRTYKANHYCDPATHHFNEDIRDITLSHKEGVSDEAAAEHIRQHIPEHDVLLAGFPCQPFSLAGVSKKNSLGRAHGFACDTQGTLFFDVVRIIDARRPAMFVLENVKNLKSHDQGKTFRIIMQTLDELGYDVADAEDNGPDDPKIIDGKHFLPQHRERIVLVGFRRDLNLKADFTLRDISECFPAQRVTLAQLLDPMVEAKYILTPVLWKYLYRYAKKHQARGNGFGYGMVYPNNPQSVTRTLSARYYKDGAEILIDRGWDMATGEKDFDDPLNQQHRPRRLTPRECARLMGFEAPGEAKFRIPVSDTQAYRQFGNSVVVPVFAAVAKLLEPKIKQAVALRQQEAQHGRRSR [P0AED9] | 2.66 ± 0.11 h | 6.76 ± 1.5 h | 5.15 ± 0.12 h | 3.09 ± 0.34 h | 2.96 ± 0.39 h | 2.31 ± 0.072 h | 3.32 ± 0.18 h | 6.06 ± 0.83 h | 3.04 ± 0.39 h | 3.94 ± 0.19 h | 3.02 ± 0.45 h | 5.98 ± 1 h |
| MQFDYIIIGAGSAGNVLATRLTEDPNTSVLLLEAGGPDYRFDFRTQMPAALAFPLQGKRYNWAYETEPEPFMNNRRMECGRGKGLGGSSLINGMCYIRGNALDLDNWAQEPGLENWSYLDCLPYYRKAETRDMGENDYHGGDGPVSVTTSKPGVNPLFEAMIEAGVQAGYPRTDDLNGYQQEGFGPMDRTVTPQGRRASTARGYLDQAKSRPNLTIRTHAMTDHIIFDGKRAVGVEWLEGDSTIPTRATANKEVLLCAGAIASPQILQRSGVGNAELLAEFDIPLVHELPGVGENLQDHLEMYLQYECKEPVSLYPALQWWNQPKIGAEWLFGGTGVGASNHFEAGGFIRSREEFAWPNIQYHFLPVAINYNGSNAVKEHGFQCHVGSMRSPSRGHVRIKSRDPHQHPAILFNYMSHEQDWQEFRDAIRITREIMHQPALDQYRGREISPGVECQTDEQLDEFVRNHAETAFHPCGTCKMGYDEMSVVDGEGRVHGLEGLRVVDASIMPQIITGNLNATTIMIGEKIADMIRGQEALPRSTAGYFVANGMPVRAKK | – | 5.76 ± 0.8 h | – | – | – | – | – | > 16 h | 2.75 h | – | – | 4.08 h |
| MSEISRQEFQRRRQALVEQMQPGSAALIFAAPEVTRSADSEYPYRQNSDFWYFTGFNEPEAVLVLIKSDDTHNHSVLFNRVRDLTAEIWFGRRLGQDAAPEKLGVDRALAFSEINQQLYQLLNGLDVVYHAQGEYAYADVIVNSALEKLRKGSRQNLTAPATMIDWRPVVHEMRLFKSPEEIAVLRRAGEITAMAHTRAMEKCRPGMFEYHLEGEIHHEFNRHGARYPSYNTIVGSGENGCILHYTENECEMRDGDLVLIDAGCEYKGYAGDITRTFPVNGKFTQAQREIYDIVLESLETSLRLYRPGTSILEVTGEVVRIMVSGLVKLGILKGDVDELIAQNAHRPFFMHGLSHWLGLDVHDVGVYGQDRSRILEPGMVLTVEPGLYIAPDAEVPEQYRGIGIRIEDDIVITETGNENLTASVVKKPEEIEALMVAARKQ | 5.36 ± 0.3 h | 5.813 ± 0.036 h | 6.45 ± 0.88 h | 5.23 ± 0.15 h | 6 ± 0.092 h | 3.12 ± 0.1 h | 6 ± 0.22 h | 12.4 ± 1.5 h | 5.53 ± 0.15 h | 10.3 ± 0.72 h | 5.95 ± 0.51 h | 12.8 ± 0.42 h |
| MQKKSIYVAYTGGTIGMQRSEQGYIPVSGHLQRQLALMPEFHRPEMPDFTIHEYTPLMDSSDMTPEDWQHIAEDIKAHYDDYDGFVILHGTDTMAYTASALSFMLENLGKPVIVTGSQIPLAELRSDGQINLLNALYVAANYPINEVTLFFNNRLYRGNRTTKAHADGFDAFASPNLPPLLEAGIHIRRLNTPPAPHGEGELIVHPITPQPIGVVTIYPGISADVVRNFLRQPVKALILRSYGVGNAPQNKAFLQELQEASDRGIVVVNLTQCMSGKVNMGGYATGNALAHAGVIGGADMTVEATLTKLHYLLSQELDTETIRKAMSQNLRGELTPDD [P0A962] | 5 ± 0.11 h | 5.54 ± 0.6 h | 5.31 ± 0.36 h | 6.03 ± 0.21 h | 5.69 ± 0.17 h | 3.18 ± 0.034 h | 5.81 ± 0.83 h | 12 ± 1.2 h | 5.74 ± 0.28 h | 10.9 ± 0.4 h | 5.81 ± 0.6 h | 11.5 ± 1.4 h |
